According to article PMC11165477:

Key:
[1] = target: Ma1α-neoGreen, expressed in Xenopus laevis oocytes (apple (Malus domestica)); experiment: single-molecule photobleaching step counting (TIRF); Ma1α-neoGreen alone in X. laevis oocytes, 16-24 h after cRNA injection, vitelline membrane removed, ND96 solution
[2] = target: Ma1α-neoGreen, expressed in Xenopus laevis oocytes (apple (Malus domestica)); experiment: single-molecule photobleaching step counting (TIRF); competition: Ma1α-neoGreen in X. laevis oocytes co-injected with 25% or 50% of the total cRNA as untagged Ma1β

Row | Substance | percent of fluorescent spots with two discrete bleaching steps [1] [%] | stoichiometry N [1] | percent Ma1α-neoGreen dimer population (two bleaching steps) with 25% of the total cRNA as untagged Ma1β [2] [%] | percent Ma1α-neoGreen dimer population (two bleaching steps) with 50% of the total cRNA as untagged Ma1β [2] [%]
1 | Ma1α-neoGreen, expressed in Xenopus laevis oocytes (natural protein) | 72 | 2 | – | –
2 | Ma1β, untagged, expressed in Xenopus laevis oocytes (natural protein) | – | – | 38 | 30
